{"source": "paper PMC7094300", "about": "(Febs Letters, 2006)", "proteins": {"B1": {"name": "SARS CoV main proteinase (enzyme)", "chain": "SGFRKMAFPSGKVEGCMVQVTCGTTTLNGLWLDDTVYCPRHVICTAEDMLNPNYEDLLIRKSNHSFLVQAGNVQLRVIGHSMQNCLLRLKVDTSNPKTPKYKFVRIQPGQTFSVLACYNGSPSGVYQCAMRPNHTIKGSFLNGSCGSVGFNIDYDCVSFCYMHHMELPTGVHAGTDLEGKFYGPFVDRQTAQAAGTDTTITLNVLAWLYAAVINGDRWFLNRFTTTLNDFNLVAMKYNYEPLTQDHVDILGPLSAQTGIAVLDMCAALKELLQNGMNGRTILGSTILEDEFTPFDVVRQCSGVTFQ"}}, "biological_target": "the molecule itself", "assay": "small-angle X-ray scattering + cross-linking + other: enzyme kinetics"}
{"protein": "B1", "values": [{"measurement": "stoichiometry N", "result": 2}]}
